# The nanobody polyreactivity screen of Harvey et al. (2022)
# Experiment: yeast display, Sf9 membrane polyspecificity reagent, FACS + sequencing; frameworks hold sequencing errors
# How it was run: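 Sorting gates, low and high (top ~1%), were placed on anti-HA fluorescence to track expression and on streptavidin fluorescence to track reagent binding. A clone's polyreactivity label is taken from the gate it came out of. The reagent was 10% biotinylated, detergent-solubilized Sf9 membrane, applied for 1 hour at 4 °C to galactose-induced yeast display cells.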
row,Sequence,polyreactivity (PSR sort gate)
1,QVQLVESGGGLVQAGGSLRLSCAASGRTFRYYAMGWYRQAPGKERELVAAISSGGNTYYADSVKGRFTISRDNAKNTVYLQMNSLKPEDTAVYYCAAKVHYSAHRFGYWGQGTQVTVSS,high polyreactivity
2,QVQLVESGGGLVQAGGSLRLSCAASGRNFPVYAMGCYRQAPGKERELVAAMTRSDDSTYYADSVKGRFTISRDNAKNTVYLQMNSLKPEDTAVYYCAADVEGWTVESDVYRVGYDFWGQGTQVTVSS,low polyreactivity
3,QVQLVESGGGLVQAGGSLRLSCAASGNIFVEYAMGWYRPAPGKERELVAAITNSGGRTHYSDSVKGRFTISRDNAKNTVYLQMNSLKPEDSEVYFCAAPTKYRSRRYYWGQGTQVTVSS,high polyreactivity
4,QVQLVESGGGIVQAGGRLRLSCAASGSTFPSKAMGWYRQAPGKERELVAAISRGGTTNYADSVKGRFTISRDNAKNTVYLQMNSLKPEDTAVYYCAKVYKLYWYKAYRRDYWGQGTQVTVSS,high polyreactivity
5,QVQLVESGGGLVQAGGSLRLSCAASGFIFWKNAMGWYRQAPGKERELVAAISWSGGRTYYADSVKGRFTISRDNAKNTVYLQMNSLKPEDTGVYYCDASVGPFPVRGDYWGQGTQVTVSS,low polyreactivity
6,QVQLVESGGGLVQAGGSLRLSCAASGGIFHPNDMGWYRQAPGKESELVAVIDSGDITNYADSVKGRFTISRDNAKNTVYLQMNSLKPEDTAVYYCAADSYSYFTDDHGYWGQGTQVTVSS,high polyreactivity
7,QVQLVESGGGLVQAGGRLRLSCAASGLTFKSYTMGLYRQAPGKERELVATISGSGTRTYYADSVKGRYTISRDNAKNTVFLQMNSLKPEDTAVYYCARVILYNNYFRYSGYRYDYWGQGTQGTVSS,high polyreactivity
8,QDQLVESGGGLVQAGGSLRLSCAASGLIFVSYAMGWYRQAPGKERELVASITDSDSSTYYADSVKGRFTISRDNAKNTVYLQMNSLKPEDTAVYYCATGGRTEIWYPTLDYWGQGTQVTVSS,low polyreactivity
9,QVQLVESGGGLVQAGGSLRLSCAASGSTLFFNARGWYRQAPGKERELVAGITDGGNTNYADSVKGRFTISRDNAKNTVYLQMNSLKPEDTAVYYCNARYSKKGESQREYDYWGQGTQVTVSS,low polyreactivity
10,QVQLVESGGGLVQAGGSLRLSCAASGFTFGRYAMGWYRQAPGKERELVAAITRGSGGTYYADSVKGRFTISRDNAKNTVYLQMNSLKPEDTAVYYCATGSRSRGALRYAHFDYWGQGTQVTESS,high polyreactivity
11,QVQLVESGGGLVQAGGSLRLSCAASGSTLVFYAMGWYRQAPGKERELVAAITRSGGSTYYADSVKGRFTISRDNEKNTVYLQMNSLKPEDTAFYYCAADERYIYERDSWGQGTQVTVSS,low polyreactivity
12,QVQLVESGGGLVQAGGSLRLSCAASGRTFRDYVMGWYRQAPGKERELVAVISYRGSTYYADSVKGRFTISRDNAKNTVYLLMNSLKPEDTAVYYCAARFSLEGGYYWGQGTQVTVSS,low polyreactivity
13,QVQLLESGGGLVQAGGSLRLSCAASGTNFDYYLMGWYRQAPGKERELVAAISWSGASTYYADSVKGRFTISRDNAKNTVYLQMNSLKPEDSAVYYCAADYCVKTLIDYDYWGEGTQVTVSS,low polyreactivity
14,QVQLVESGGGLVQAGGSLRLSCAASGRYAMGWYRQAPGKVRELVAAISDSDGSTYYADSVKGRFTISRDNAKTNVYLQMNSLKPEDTAVNYCDARSIVRFDSWGQGTQVTVSS,low polyreactivity
15,QVQLVESGGRLVQAGGSLRLSCAASGRIIYGYAMGWYRQAPGKERELVATITWSGGSTYYADSVKGRFTISRDNAKNTVYLQMNSLKPEDTAVYYCAAYSPFIYQAYRYDYWGQGTLVTVSS,low polyreactivity
16,QVQLVESGGGLVQAGGRLRLSCAASGSIMDTNAMGWYRQAPGKERELVARIDIDGSTNYADSVKGRFTISRDNAKKTVYLQMNSLKPEDTAVYYCNKDHSSYGASGYDYWGQGTQVTVSS,low polyreactivity
17,QVQLVESGGGLVQAGGSLRLSCAASGSTLRRNAMGWYRQAPGTERELVAAITGSRGSTFYADSVKGRFTISRDNAKNTVYLQMNSLKPEDTAVYYCAVYKWSTRVSQYRYDYWGQGTQVTVSS,high polyreactivity
18,QVQLVESGGGLVHAGGSLRLSCAASGRTFIRYAMGWYIQAPGKERQLVAAISSSGGSTYYADSVKGRFTISRDNAKNTVYLQMNSLKPEDTAVYYCNAYVYYSHEDDYWGQGTQVTVSS,high polyreactivity
19,QVQLEESGGGLVQAGGSLRLSCAASGSIFPFYAMGRYRQAPGKERELVAAISDRGGSTYYADSVKGRFTISRDNAKNTVYLQMNSLKPEDTAVYYCAKGGGVSQGYTDEYDYWGQGTQVTVSS,low polyreactivity
20,QVQLVESGGGLVQAGGSLRLSCAASGFIFSRYSMGWYRQAPGKERELVAGITSRGGITYYADSVKGRFTISRDNAKNTVYLQMNSLIPEDTAVYYCNAGKSLSKSFDYWGQGTQVTVSS,high polyreactivity
21,QVQLVESGGGLVQAGGSLRLSCAASGSIFESYAMGWYRQAPGKERELVAAITLSGTSTYYADSVKGRFTISRDNAKNTVYLQMNSLKPEDTAVYYCNAKPIPVRGSYDYWGQGTQVTVSS,low polyreactivity
22,QVQLVESGGGLVQAGGSLRLSCAASGLIFQGYAMGWYRQAPGKEREFVAVITWSGGSTYYADSVKGRFTISRDNAKNTVYLQMNSLKPEDTAVYYCADDDVWYDFDYWGQGTQVTVSS,low polyreactivity

row,Sequence,polyreactivity (PSR sort gate)
1,QVQLVESGGGLDQARGSLRLSCAASGSIFWKYAMGWYRQAPWKERELVAAISRSSSTTYYADSVKGRFTISRDNAKNTVYLQMNSLKPEDTAVYYCAAYYRSRVSDDYWGQGTQVTVSS,high polyreactivity
2,QVHLVESGGGLVQAGGSLRLSCAASGNIITSYAMGWYRQAPGKERELVAAISSGGTTHYADSVKGRFTISRDNAKNTVYLQMNSLKPEDTAVYYCAARQVSYYKANDSWVRSEYDYWGQGTQVSVSS,low polyreactivity
3,QVQLVESGGGLVQAGGSLRLSCAASGSTFRRNAMGWYRQAPGKERELLAAISRRGGSTYYADSVKGRFTISRDNAKNTVYLQMNSLKPEDTAVYYCASAVTTYSQGQGVYSWGQGTQVTVSS,high polyreactivity
4,QVQLIESGGGLVQAGGSLRLSCAASGIIFYDYAMGWYRQAPGKERELVATITSGGSTNYADSVKGRFTISRDNAKNTVYLQMNSLKPEDTAVYYCAAGRGLILGGVYGYDYWGQGTQVTVSS,low polyreactivity
5,QVQLVESGGGLVQAGGSLRLSCAASGSTFGYYAMGWYRPAPGKERELVAAISSSAGTTYYADSVKGCFTISRDNAKNTVYLLMNRLKPEDTAVFYCAADAVSGHEYWGQGTQVTVSS,low polyreactivity
6,QVQLVESGGGLVQAGGSLRLSCAASGSIFSTYAMGWYRQAPGKERELVASINYSGGSTYYADSVKGRFTISRDNAKNTVYLQMNSLKPEDTAVYYCNTGPFVGFDYWGQGTQVTVSS,low polyreactivity
7,QVQLEESGGGVVQAGGSLRLSCAASGSILGISAMGWYRPAPGKERALVAAIRTSSGSTYYADSVKVRFTISRDNAKNTVYFQMNSLKPEDTAVYSCAAYAFRYTPYYSWGQGTQVTVSS,high polyreactivity
8,QVQLVESGGGLVQAGGSLRLSCASSGRIFRSYAMGWYRQAPGKERELVAAISSGGGSTYYADSVKGRFTISRDNAKNTVYLQMNSLKPEDTAVYYCNTDFYYDDVSQAHDYWGQGTQVTVSS,high polyreactivity
9,QVQLVESGGCLVQAGGSLRLSCAASGLTIFVNAMGWYRQAPGKERELVATISGGGSTYYADSVKGRFTISRDNAKNTVYLQMNSLKPEDTAVYYCNGGGYGLRGDYWGQGTQVTVSS,low polyreactivity
10,QVQLVESGGGLVQAGGSLRLSCAASGRTFTSYAMGWYRQAPGKERELVAVITRRGGSTSYADSVKGRFTISRDNAKNTVYLQMNSLKPEDTAVYYCAAKRTWPDVKYIRYGYWGQGTQVTVSS,high polyreactivity
11,QVQLVESGGGLVQAGGSLRLSCAASGFIFPLYTMGWYRQAPGKERELVAANSVTGGSTYYADSVKGRFTISRDNAKNTVYLQMNSLKPEETAVYYCNAYLFFLNRVWSFDYWGQGTQVTVSW,high polyreactivity
12,QVQLVESGGGLVQAGGSLRLSCAASGRIFGVYAMGWYRQAPGKERELVAAISSTGGSTYYADSVKGRFTISRDNAKNTVYLQMNSLKPEDTAVYYCEYDYWGQGTQVTVSS,low polyreactivity
13,QVQHVESGGGLVQAGGSLRLSCAASGFTFSKYGMGWYRQAPGKERELVAAISGSGGNTYYADSVKGRFTISRDNAKNTVYLQMNSLKPEDTAVYYCNAEGWRYYYWYHEYGYWGQGTQVTVSS,low polyreactivity
14,QVQLVESGGSLVQAGGSLRLSCAASGFIFQDNAMGWYRQAPGKERELVAAIRSTGSTNYADSVKGRFTISRDNAKNTVYLQMNSLKPEDTAVYYCNAGKYQSDTPSLVPTEYPAFYYWGQGTQVTVSS,low polyreactivity
15,QVQLVESGGGLVQAGGSLRLSCAASGSTFQWNALGWYRQAPGKERELVASITDSGGRTNYADSVKGRFTISRDNAKNTVYLQMNSLKPEDTAVYYCNAAGYRRSTWWYDYWGQGSQVTVSS,high polyreactivity
16,QVQLVESGGGLVQAGGSLRLSCAASGRTFIYYAMGWNRQAPGKERELVAGITYSVGSTYYADSVKGRFTISRDNEKNTVYLQMNSLKPEDTAVYYCAADATFESDWGQGTQVTVSS,low polyreactivity
17,QVQLVESWGCLVQAGGSLRLSCAASGFTFESNAMGWYRQAPGKERELVAAITSSGGRTYYADSVKGRFTISRVNAKNTVYLQMNSLNPEDSAVYYCAATGKAPRESGGVYSMDWGQGTQVTVSS,low polyreactivity
18,QVQLVESGGCLVQSGGSLRLSCAASGIIISSYAMGWYRQAPGKERELVADIRSGGSTNYADSVKGRFTISRDNAKNTVYLQMNSLKPEDTAVSDCNADTFQWWDSAAVYVIVKYGYWGHGTQVTVSS,low polyreactivity
19,QVQLVESGGGLVQAGGSLRLSCAASGSIFRNYAMGWYRKAPGKERELVADSTYYADSVKGRFTISRDNAKNTVYLQMNSLKPEDTAVYYCNTVYATRYDYWGQGTQVTVSS,high polyreactivity
20,QVQLVESGGGLVQAGGSLRLSCAASGSTFYPNAMGWYRQAPGKERELVAAISGDDSTYYADSVKGRFTISRDNAKNTVYLQMNSLKPEDTAVYYCAAGDYRIGYLYYYWGQGTQVTVSS,low polyreactivity
21,QVQLVESGGVLVQAGGSLRLSCAASGSTIRLYAMGWYRQAPGKERELVAAIRSGGNTNYADSVKGRFTISRDNAKNSVYLQMKSLKREDTAVYYCNGFCAQLPVPNYDYWGQGPQVTVSS,high polyreactivity
